Test results: IntAct's records for PubMed 23463101

B1: Trinucleotide repeat-containing gene 6C protein (Homo sapiens), Q9HCJ0-1 (parent)
chain: MATGSAQGNFTGHTKKTNGNNGTNGALVQSPSNQSALGAGGANSNGSAARVWGVATGSSSGLAHCSVSGGDGKMDTMIGDGRSQNCWGASNSNAGINLNLNPNANPAAWPVLGHEGTVATGNPSSICSPVSAIGQNMGNQNGNPTGTLGAWGNLLPQESTEPQTSTSQNVSFSAQPQNLNTDGPNNTNPMNSSPNPINAMQTNGLPNWGMAVGMGAIIPPHLQGLPGANGSSVSQVSGGSAEGISNSVWGLSPGNPATGNSNSGFSQGNGDTVNSALSAKQNGSSSAVQKEGSGGNAWDSGPPAGPGILAWGRGSGNNGVGNIHSGAWGHPSRSTSNGVNGEWGKPPNQHSNSDINGKGSTGWESPSVTSQNPTVQPGGEHMNSWAKAASSGTTASEGSSDGSGNHNEGSTGREGTGEGRRRDKGIIDQGHIQLPRNDLDPRVLSNTGWGQTPVKQNTAWEFEESPRSERKNDNGTEAWGCAATQASNSGGKNDGSIMNSTNTSSVSGWVNAPPAAVPANTGWGDSNNKAPSGPGVWGDSISSTAVSTAAAAKSGHAWSGAANQEDKSPTWGEPPKPKSQHWGDGQRSNPAWSAGGGDWADSSSVLGHLGDGKKNGSGWDADSNRSGSGWNDTTRSGNSGWGNSTNTKANPGTNWGETLKPGPQQNWASKPQDNNVSNWGGAASVKQTGTGWIGGPVPVKQKDSSEATGWEEPSPPSIRRKMEIDDGTSAWGDPSNYNNKTVNMWDRNNPVIQSSTTTNTTTTTTTTTSNTTHRVETPPPHQAGTQLNRSPLLGPGRKVSSGWGEMPNVHSKTENSWGEPSSPSTLVDNGTAAWGKPPSSGSGWGDHPAEPPVAFGRAGAPVAASALCKPASKSMQEGWGSGGDEMNLSTSQWEDEEGDVWNNAASQESTSSCSSWGNAPKKGLQKGMKTSGKQDEAWIMSRLIKQLTDMGFPREPAEEALKSNNMNLDQAMSALLEKKVDVDKRGLGVTDHNGMAAKPLGCRPPISKESSVDRPTFLDKDGGLVEEPTPSPFLPSPSLKLPLSHSALPSQALGGIASGLGMQNLNSSRQIPSGNLGMFGNSGAAQARTMQQPPQPPVQPLNSSQPSLRAQVPQFLSPQVQAQLLQFAAKNIGLNPALLTSPINPQHMTMLNQLYQLQLAYQRLQIQQQMLQAQRNVSGSMRQQEQQVARTITNLQQQIQQHQRQLAQALLVKQPPPPPPPPHLSLHPSAGKSAMDSFPSHPQTPGLPDLQTKEQQSSPNTFAPYPLAGLNPNMNVNSMDMTGGLSVKDPSQSQSRLPQWTHPNSMDNLPSAASPLEQNPSKHGAIPGGLSIGPPGKSSIDDSYGRYDLIQNSESPASPPVAVPHSWSRAKSDSDKISNGSSINWPPEFHPGVPWKGLQNIDPENDPDVTPGSVPTGPTINTTIQDVNRYLLKSGGKLSDIKSTWSSGPTSHTQASLSHELWKVPRNSTAPTRPPPGLTNPKPSSTWGASPLGWTSSYSSGSAWSTDTSGRTSSWLVLRNLTPQIDGSTLRTLCLQHGPLITFHLNLTQGNAVVRYSSKEEAAKAQKSLHMCVLGNTTILAEFAGEEEVNRFLAQGQALPPTSSWQSSSASSQPRLSAAGSSHGLVRSDAGHWNAPCLGGKGSSELLWGGVPQYSSSLWGPPSADDSRVIGSPTPLTTLLPGDLLSGESL

Columns and labels:
[1] = variants of: B1; conditions: with cnot1_human CNOT1, A5YKK6
Chain of cnot1_human CNOT1, A5YKK6 (A5YKK6 whole entry): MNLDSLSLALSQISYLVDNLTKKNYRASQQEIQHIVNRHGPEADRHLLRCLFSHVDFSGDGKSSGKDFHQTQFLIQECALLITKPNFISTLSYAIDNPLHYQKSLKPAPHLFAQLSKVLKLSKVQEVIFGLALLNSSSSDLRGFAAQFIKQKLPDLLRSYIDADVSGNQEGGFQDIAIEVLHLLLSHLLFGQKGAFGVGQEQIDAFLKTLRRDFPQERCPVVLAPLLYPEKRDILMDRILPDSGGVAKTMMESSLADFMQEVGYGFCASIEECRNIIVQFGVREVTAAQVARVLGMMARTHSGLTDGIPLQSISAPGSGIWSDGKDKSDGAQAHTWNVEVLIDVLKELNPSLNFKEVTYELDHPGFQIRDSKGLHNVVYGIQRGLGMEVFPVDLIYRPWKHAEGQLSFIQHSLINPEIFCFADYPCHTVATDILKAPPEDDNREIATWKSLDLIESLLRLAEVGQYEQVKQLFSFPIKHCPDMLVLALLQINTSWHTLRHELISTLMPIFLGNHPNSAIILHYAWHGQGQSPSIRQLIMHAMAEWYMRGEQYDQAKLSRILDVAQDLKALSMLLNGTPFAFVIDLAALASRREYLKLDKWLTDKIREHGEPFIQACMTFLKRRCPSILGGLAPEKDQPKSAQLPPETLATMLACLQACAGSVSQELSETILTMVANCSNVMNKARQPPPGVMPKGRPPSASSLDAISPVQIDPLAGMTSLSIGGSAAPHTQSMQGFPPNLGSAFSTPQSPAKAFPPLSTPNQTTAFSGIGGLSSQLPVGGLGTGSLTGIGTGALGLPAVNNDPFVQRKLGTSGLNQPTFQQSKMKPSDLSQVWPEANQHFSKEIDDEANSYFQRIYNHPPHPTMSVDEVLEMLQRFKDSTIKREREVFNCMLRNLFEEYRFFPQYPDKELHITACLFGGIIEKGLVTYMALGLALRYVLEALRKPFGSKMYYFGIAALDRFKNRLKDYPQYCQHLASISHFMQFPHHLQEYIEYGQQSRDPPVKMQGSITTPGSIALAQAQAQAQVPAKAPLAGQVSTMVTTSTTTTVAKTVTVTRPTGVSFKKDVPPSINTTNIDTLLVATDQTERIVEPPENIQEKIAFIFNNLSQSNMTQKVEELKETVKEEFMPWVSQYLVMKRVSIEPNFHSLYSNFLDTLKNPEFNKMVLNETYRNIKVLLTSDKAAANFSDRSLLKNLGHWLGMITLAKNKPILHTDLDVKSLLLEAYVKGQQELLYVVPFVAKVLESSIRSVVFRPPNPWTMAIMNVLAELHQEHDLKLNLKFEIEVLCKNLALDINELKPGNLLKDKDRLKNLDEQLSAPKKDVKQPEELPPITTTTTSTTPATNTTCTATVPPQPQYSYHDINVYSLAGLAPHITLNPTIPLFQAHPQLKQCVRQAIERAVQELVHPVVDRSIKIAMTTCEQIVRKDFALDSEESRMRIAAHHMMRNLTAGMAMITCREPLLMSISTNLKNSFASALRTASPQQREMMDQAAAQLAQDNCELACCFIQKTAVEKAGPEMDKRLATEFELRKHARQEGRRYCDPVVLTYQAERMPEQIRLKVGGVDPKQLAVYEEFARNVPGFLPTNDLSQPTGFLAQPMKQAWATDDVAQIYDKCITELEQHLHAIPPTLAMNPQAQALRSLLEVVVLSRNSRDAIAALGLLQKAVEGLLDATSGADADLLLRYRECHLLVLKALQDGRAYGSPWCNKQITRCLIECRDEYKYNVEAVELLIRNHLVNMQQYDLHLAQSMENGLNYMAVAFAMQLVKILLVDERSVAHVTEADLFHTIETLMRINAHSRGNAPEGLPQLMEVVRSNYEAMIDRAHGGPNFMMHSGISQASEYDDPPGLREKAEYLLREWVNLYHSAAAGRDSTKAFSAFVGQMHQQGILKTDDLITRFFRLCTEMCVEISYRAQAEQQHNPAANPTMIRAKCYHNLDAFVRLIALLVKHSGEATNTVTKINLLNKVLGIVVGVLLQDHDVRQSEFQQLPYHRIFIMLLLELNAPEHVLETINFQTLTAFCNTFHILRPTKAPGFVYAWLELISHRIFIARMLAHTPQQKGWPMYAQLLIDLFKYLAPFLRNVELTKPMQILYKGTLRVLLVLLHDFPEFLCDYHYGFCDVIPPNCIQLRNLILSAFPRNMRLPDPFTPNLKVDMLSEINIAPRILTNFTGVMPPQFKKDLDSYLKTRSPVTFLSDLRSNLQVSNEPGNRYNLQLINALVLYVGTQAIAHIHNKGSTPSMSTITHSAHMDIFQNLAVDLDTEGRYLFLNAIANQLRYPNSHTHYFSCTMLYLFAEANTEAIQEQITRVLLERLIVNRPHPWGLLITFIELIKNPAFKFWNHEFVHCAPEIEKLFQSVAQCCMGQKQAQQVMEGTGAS

pabp_drome pAbp, P21187 [2] = variants of: B1; conditions: with pabp_drome pAbp
Chain of pabp_drome pAbp, P21187 (P21187 whole entry): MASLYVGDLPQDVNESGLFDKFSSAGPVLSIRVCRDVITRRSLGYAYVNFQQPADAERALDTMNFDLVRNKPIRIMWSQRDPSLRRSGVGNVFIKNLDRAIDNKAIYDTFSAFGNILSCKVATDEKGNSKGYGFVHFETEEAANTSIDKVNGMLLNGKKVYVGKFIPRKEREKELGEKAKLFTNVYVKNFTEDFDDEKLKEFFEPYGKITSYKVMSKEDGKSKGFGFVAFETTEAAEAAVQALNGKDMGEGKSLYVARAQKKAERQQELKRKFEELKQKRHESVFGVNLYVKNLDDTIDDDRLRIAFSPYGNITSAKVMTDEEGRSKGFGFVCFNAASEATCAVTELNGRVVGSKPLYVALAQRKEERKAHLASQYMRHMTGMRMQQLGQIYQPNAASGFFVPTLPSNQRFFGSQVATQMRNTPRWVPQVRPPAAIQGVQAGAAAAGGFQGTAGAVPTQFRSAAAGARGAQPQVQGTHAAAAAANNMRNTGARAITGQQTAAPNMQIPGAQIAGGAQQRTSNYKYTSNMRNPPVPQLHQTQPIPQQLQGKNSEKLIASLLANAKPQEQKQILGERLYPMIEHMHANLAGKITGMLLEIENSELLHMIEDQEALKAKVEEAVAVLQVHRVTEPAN

pabp_drome pAbp, P21187 [3] = variants of: B1; conditions: with pabp_drome pAbp; remark: listed apart in the source
pabp_drome pAbp, P21187 [4] = variants of: B1; conditions: with pabp_drome pAbp; remark: listed apart in the source

Variant	effect of a mutation on the interaction [1]	effect of a mutation on the interaction (pabp_drome pAbp, P21187 [2])	effect of a mutation on the interaction (pabp_drome pAbp, P21187 [3])	effect of a mutation on the interaction (pabp_drome pAbp, P21187 [4])
Q1294A;S1295A;R1296A;L1297A;Q1299A;W1300A	disrupting interaction	decreasing interaction	decreasing interaction	–
F1389A	–	–	–	disrupting interaction
